Consider one molecule from patent US10689452 (UNIVERSIT T STUTTGART, dated 2020).

The target in test [1] is T1, human TNFR1-Fc fusion protein (human, UniProt P19438 29-211).
T1 construct: range 29-211; Made in stably transfected HEK293 cells; coated on ELISA plates or immobilised on QCM chips; also called huTNFR1-Fc; human TNFR-Fc; not shown: Fc part from vector pSecTagL1-Fc
T1 sequence (looked up): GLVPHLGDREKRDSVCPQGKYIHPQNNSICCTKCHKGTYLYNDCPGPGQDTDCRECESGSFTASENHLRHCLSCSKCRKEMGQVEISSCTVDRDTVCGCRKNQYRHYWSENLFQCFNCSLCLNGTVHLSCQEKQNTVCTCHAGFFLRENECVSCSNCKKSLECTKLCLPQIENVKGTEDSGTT
Put plainly: QCM, human TNFR1-Fc, moderate receptor density (86 Hz), biphasic fit, KD1 (low-affinity part). As to the method: (§1) Real-time binding dynamics in protein-protein interactions were determined by quartz crystal microbalance measurements (A-100 C-Fast or Cell-200 C-Fast, Attana, Stockholm, Sweden). One of the binding partners (ligand, e.g. TNFR1-Fc) was chemically immobilized on a carboxyl sensor chip according to the manufacturer's protocol at different densities (nearly 200 Hz in the case of saturating conditions to confirm previously published results and 50-100 Hz, in particular at about 50 Hz, to establish conditions of lower receptor density, better resembling the situation on the cellular surface). Binding experiments were performed with samples (analyte) diluted in PBST (PBS, 0.1% Tween 20) at pH 7.4 with a flow rate of 25 µl/min at 37° C. The chip was regenerated with 25 µl 5 mM NaOH or 20 mM glycine, pH 2.0. Every third measurement, an injection of running buffer was measured which was subtracted from the binding curve. Data were collected using the software provided by Attana for the particular device and analyzed by Attaché Office Evaluation software (Attana, Stockholm, Sweden) and TraceDrawe (ridgview instruments, Vange, Sweden).

Test [2] concerns the target T2, human TNFR1 on cells (HT1080, HeLa, Kym-1) (human, UniProt P19438 30-455).
T2 sequence (looked up): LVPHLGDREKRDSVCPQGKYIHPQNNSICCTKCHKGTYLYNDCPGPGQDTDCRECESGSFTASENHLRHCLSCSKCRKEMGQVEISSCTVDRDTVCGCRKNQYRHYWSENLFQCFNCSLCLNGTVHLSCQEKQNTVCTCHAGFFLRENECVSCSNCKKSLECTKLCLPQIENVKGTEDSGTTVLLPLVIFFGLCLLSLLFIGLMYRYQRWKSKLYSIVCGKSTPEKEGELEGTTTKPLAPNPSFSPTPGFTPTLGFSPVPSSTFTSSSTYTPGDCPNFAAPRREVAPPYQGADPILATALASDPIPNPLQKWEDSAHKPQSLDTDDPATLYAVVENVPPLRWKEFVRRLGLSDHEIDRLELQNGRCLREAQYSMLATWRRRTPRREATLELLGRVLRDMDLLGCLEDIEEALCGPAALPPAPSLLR
Put plainly: cell-based or functional assay.

Test [3] concerns the target T1, human TNFR1-Fc fusion protein. Put plainly: standard ELISA, human TNFR1-Fc. As to the method: FIG. 1. […] Applied were triplicates of five concentrations between 3.9 nM and 62.5 nM.
(§2) Microtiter plates were coated with 100 µl of the indicated protein (1 µg/ml in PBS, see Table 3.3) and incubated at 4° C. over night. The residual binding sites were blocked with 2% MPBS (skim milk in PBS, 200 µl per well) at room temperature for 2 hours and subsequently washed twice with PBS. 100 µl of the samples diluted in 2% MPBS were incubated at room temperature for 1 hour prior to the last incubation step with 100 µl of the HRP conjugated detection antibodies in 2% MPBS. In the case of competition experiments, both analyzed protein samples were prepared individually (either titrated or diluted to a single concentration) and mixed before they were applied to the plate. Bound protein was detected with 100 µl TMB substrate solution, the HRP-reaction was stopped by the addition of 50 µl 1 M H2SO4 and the absorption at the wavelength of 450 nm was measured using the Infinite microtiter plate reader (TECAN, Maennedorf, Switzerland). Between each incubation step and in advance of the detection, the plates were washed three times with PBST and twice with PBS.
On the technique in general: In an ELISA, binding on a coated surface is turned into a signal by an enzyme label.

For test [4], the target named is T3, human TNFR2-Fc fusion protein (human, UniProt P20333 23-257).
T3 construct: whole entry named; also called huTNFR2
T3 sequence (looked up): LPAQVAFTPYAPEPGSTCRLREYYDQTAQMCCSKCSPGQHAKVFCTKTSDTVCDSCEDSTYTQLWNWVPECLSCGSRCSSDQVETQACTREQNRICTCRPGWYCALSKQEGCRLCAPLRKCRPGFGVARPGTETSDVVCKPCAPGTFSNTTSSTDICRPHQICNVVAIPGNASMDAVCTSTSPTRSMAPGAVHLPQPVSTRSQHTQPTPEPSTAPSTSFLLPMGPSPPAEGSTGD
Nature of the test: ELISA on coated receptor-Fc fusion proteins, one antibody concentration (not given on the sheet). The procedure: (§3) FIG. 12. Species selectivity of scFv13.7 derivatives. […] Presented are mean and SD of two individual experiments.
as §2

Test [5] concerns the target T4, mouse TNFR2-Fc fusion protein (mouse, UniProt P25119 23-258).
T4 construct: range 23-258; not shown: Fc part from vector pSecTagL1-Fc
T4 sequence (looked up): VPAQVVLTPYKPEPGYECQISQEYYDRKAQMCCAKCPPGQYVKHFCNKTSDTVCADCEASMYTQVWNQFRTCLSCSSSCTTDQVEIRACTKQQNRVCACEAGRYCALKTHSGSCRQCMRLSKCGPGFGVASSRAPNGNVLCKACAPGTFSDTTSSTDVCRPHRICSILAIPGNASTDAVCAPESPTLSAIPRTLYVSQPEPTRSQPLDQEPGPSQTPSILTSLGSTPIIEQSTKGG
The description is as above. As to the method:
as §3, §2

In test [6] the target is T5, mouse TNFR1-Fc fusion protein (mouse, UniProt P25118 30-212).
T5 construct: range 30-212; also called moR1; not shown: Fc part from vector pSecTagL1-Fc
T5 sequence (looked up): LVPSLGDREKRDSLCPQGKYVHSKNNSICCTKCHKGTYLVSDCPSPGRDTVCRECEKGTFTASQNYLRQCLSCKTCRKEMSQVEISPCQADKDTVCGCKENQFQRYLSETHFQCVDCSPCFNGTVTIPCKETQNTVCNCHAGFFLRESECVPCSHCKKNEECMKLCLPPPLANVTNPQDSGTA
Described as above. As to the method: as §3, §2

The target in test [7] is T1, human TNFR1-Fc fusion protein. Put plainly: QCM, human TNFR1-Fc, moderate receptor density (86 Hz), biphasic fit, kon1 (low-affinity part). As to the method: as §1

B1: ATROSAB (antibody, IgG1, V domains shown)
VH: QVQLVQSGAEVKKPGSSVKVSCKASGYTFTDFYINWVRQAPGQGLEWIGEIYPYSGHAYYNEKFKARVTITADKSTSTAYMELSSLRSEDTAVYYCARWDFLDYWGQGTTVTVSS
VL: DIVMTQSPLSLPVTPGEPASISCRSSQSLLHSNGNTYLHWYLQKPGQSPQLLIYTVSNRFSGVPDRFSGSGSGTDFTLKISRVEAEDVGVYYCSQSTHVPYTFGGGTKVEIKR
notes: Humanized full-length IgG1 with a modified Fc region deficient in mediating effector functions (made according to WO2012035141); also called full length IgG ATROSAB
B1: the affinity in test [1], expressed as Kd, was 78 nM. In test [2], the “IC50, Cytotox (nM); inhibition of Kym-1 cell death by 0.01 nM TNF” value worked out at 24 nM; the “IC50, IL-6 (nM); inhibition of the response of HeLa cells to 0.1 nM TNF” value is 179 nM; the “IC50, IL-8 (nM); inhibition of the response of HT1080 cells to 0.1 nM TNF” value is 118 nM; the “IL-6 release (pg/ml), HeLa cells” value was found to be 231 pg/mL. Further, in test [2], the “IL-8 release (pg/ml), HT1080 cells” value amounted to 240 pg/mL. In addition, in test [3], a half-maximal response (EC50) required 0.25 nM and the “Factor (EC50, ATROSAB against H398)” value amounted to 1.7 fold. Moreover, in test [4], the binding result is reported as “no binding”. Also, in test [5], the binding result was “no binding”. Moreover, the binding result in test [6] is “no binding”. Also, the on-rate (kon) (commonly the rate constant with which the complex forms) in test [7] was 282000 M⁻¹ s⁻¹.
